Source: patent US20050037421A1 (INSTITUTE FOR ANTIBODIES, published 2005)

How the values were obtained:
[1] = target: glutathione S-transferase (GST); experiment: SPR (BIAcore 1000), GST immobilized on CM5
[2] = target: glutathione S-transferase (GST); experiment: SPR (BIAcore 1000), GST immobilized on CM5 at 1750 RU
[3] = target: glutathione S-transferase (GST); experiment: SPR (BIAcore 1000), GST immobilized on CM5, from kinetic analysis
[4] = target: T1, Bacillus stearothemophillus-derived lactic acid dehydrogenase (L-LACTIC DEHYDROGENASE) expressed in E. coli (Bacillus stearothemophillus, UniProt P00344 1-317); experiment: ELISA: LDH on the plate (PBS wells as negative control), culture supernatant with VHH-cp3, anti-cp3 monoclonal and anti-mouse IgG-POD, OD 492 nm
T1 construct: purity about 80%; also called LDH
T1 sequence (P00344 whole entry): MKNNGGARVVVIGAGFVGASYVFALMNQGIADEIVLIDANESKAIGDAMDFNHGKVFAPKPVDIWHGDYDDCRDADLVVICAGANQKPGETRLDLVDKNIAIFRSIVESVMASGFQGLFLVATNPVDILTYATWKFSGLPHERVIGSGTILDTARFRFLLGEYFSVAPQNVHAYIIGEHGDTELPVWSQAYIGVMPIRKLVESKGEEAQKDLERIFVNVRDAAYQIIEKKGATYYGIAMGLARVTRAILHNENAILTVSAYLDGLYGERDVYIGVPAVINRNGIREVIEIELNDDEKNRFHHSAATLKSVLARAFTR
Protocol: Similarly to anti-GST VHH, 60 clones and 36 clones were prepared as monoclones from the 3rd and 4th screenings, respectively. Next, ELISA was performed similarly as for anti-GST VHH.
LDH dissolved in PBS at 200 μg/mL was used to sensitize MaxiSorp™. Culture supernatant, 10-fold diluted mouse anti-cp3 monoclonal 3G3A8H1, and 1000-fold diluted goat anti-mouse IgG (H+L)-POD were added as primary, secondary, and tertiary antibodies, respectively, to this antigen-sensitized plate. As negative control, PBS was added instead of performing antigen sensitization.

[5] = target: glutathione S-transferase (GST); experiment: cell-based or functional assay
[6] = target: glutathione S-transferase (GST); experiment: SPR (BIAcore 1000), GST immobilized on CM5 at 2252 RU
[7] = target: glutathione S-transferase (GST); experiment: SPR (BIAcore 1000), GST immobilized on CM5, Langmuir model, global fitting
[8] = target: glutathione S-transferase (GST); experiment: SPR (BIAcore 1000), GST immobilized on CM5, global fitting; mass transport limitation, value used as the lower limit
[9] = target: T1, Bacillus stearothemophillus-derived …; experiment: cell-based or functional assay
[10] = target: T1, Bacillus stearothemophillus-derived …; experiment: SPR (BIAcore), LDH immobilized on CM5 at 5653 RU
Protocol: Procedure similar to that with GST was used to immobilize LDH on CM-sensor chip (Sensor Chip CM5, Research grade, BIAcore) using the amino coupling method.
(§1) […] on CM5 were activated using EDC/NHS (equal amounts of EDC and NHS of Amine Coupling Kit (BIAcore) were mixed) (8-minute contact time), and the chip was washed with HBS-EP (BIAcore). Twenty μg/mL of LDH (Sigma, […] diluted in 10 mM acetic acid (pH5.0)) was then added to the chip. After washing the chip with HBS-EP, 1 M ethanol amine (pH 8.5) was added to inactivate the remaining activated carboxyl groups. Following the inactivation, the chip was washed with HBS-EP to remove all LDHs that had not been covalently bound. The amount of immobilized antigens was calculated 5653 RU. When binding was evaluated by adding saturating amounts of clone No. 430 to the sensor, the value was near 800 RU.

[11] = target: T1, Bacillus stearothemophillus-derived …; experiment: SPR (BIAcore), LDH immobilized on CM5, (Langmuir) binding model
Protocol: as §1
(§2) All experiments were performed in HBS-EP at 25° C., and regeneration was performed under optimum conditions. Washing was performed for 1 min using 50 mM citric acid (pH2.5).
(§3) The binding was monitored by changing the LDH concentration (5×10⁻⁸ M to 4.0×10⁻⁷ M). […] Base-line correction was also taken into consideration. Values of ka (1/Ms), kd (1/S), and KD calculated based on kinetic analysis using global fitting (BIAevaluation Ver. 3) were as shown in Table 6.

[12] = target: T1, Bacillus stearothemophillus-derived …; experiment: SPR (BIAcore), LDH immobilized on CM5, 1:1 binding with mass transfer model
Protocol: as §1, §2, §3

| Binder | binding result [4] | LDH reaction rate in the direction of lactic acid production [9] [fold] | response at saturating amount (RU) [10] [RU] | Ka [11] [M⁻¹] | Kd [11] [nM] | koff [11] [s⁻¹] | kon [11] [M⁻¹ s⁻¹] | Ka [12] [M⁻¹] | Kd [12] [nM] | koff [12] [s⁻¹] | kon [12] [M⁻¹ s⁻¹] | further results |
| --- | --- | --- | --- | --- | --- | --- | --- | --- | --- | --- | --- | --- |
| anti-GST VHH clone No. 29, protein A-fused type (VHH, not shown: large carriers) VHH: EVQLVESGGGSVQAGGSLKLSCGLSGYTSSMNAMGWFRQAPGKEREGVAAVSRGGKAYYADSVKGRFTVSRDNVKNTVDLQMKGLKAEDTATYYCAATDESPLRRRFSLLDRRRYDWWGRGTQVFVSS | – | – | – | – | – | – | – | – | – | – | – | koff [1]: 0.00255 s⁻¹; kon [1]: 25400 M⁻¹ s⁻¹; response at saturating amount (RU) [2]: 460 RU; Kd [3]: 100 nM |
| anti-LDH VHH clone No. 407, protein A-fused type (VHH, not shown: protein A part of the vector after SalI digestion and self-ligation) VHH: AVQLVESGGGSVQTGGSLRLSCVASGYTYSSARIGWFRQAPGKEREGVAAILTDGVTTYYADAVKGRFTISRDNAKNTVYLQMNSLKPEDTAMYYCAIRTSPYSGGWFRVSQYNGWGQGTQVTVSS | binds | – | – | – | – | – | – | – | – | – | – | – |
| anti-GST VHH clone No. 75, protein A-fused type (VHH, not shown: large carriers) VHH: AVQLVDSGGGSVQAGGSLRLSCAASGTTYCTYDIAWYRQAPEKDYEFVSVIDSDGSTRYADSVKGRFTISRDNAKNTVYLQMNSLKPEDTAMYYCKTVFKSWCSDGLGTTLPNYWGQGTQVTVSS | – | – | – | – | – | – | – | – | – | – | – | GST enzyme inhibitory activity (absorbance at 340 nm, CDNB and glutathione as substrates) [5]: > 1.5 µM; response at saturating amount (RU) [6]: 300 RU; Kd [3]: 24 nM; kon [7]: 38100 M⁻¹ s⁻¹; koff [8]: 0.000915 s⁻¹ |
| anti-LDH VHH clone No. 418, protein A-fused type (VHH, not shown: large carriers) VHH: EVQLVESGGGSVQAGDSLRLSCTTSGFTFANSVMVWYRQGSGNECKLVSSISTDGTTYYSTSVKGRFTISRDNAKNTVYLQMNNLKAEDTAMYYCAADFQASTVGRCDGYGYAKWGQGTQVTVSS | – | 10 | – | – | – | – | – | – | – | – | – | – |
| anti-LDH VHH clone No. 434, protein A-fused type (VHH, not shown: protein A part of the vector after SalI digestion and self-ligation) VHH: EVQLVESGGGSVQAGGSLRLSCAASGYTSGRNYMAWFRQAPGKEREGVGRIYSTGGSARYADSVKGRFTISQDLSNDTMYLQMNNLKPEDTGMYYCAAGKPYGDMLDARGYKYWGHGTQVTVSS | binds | – | – | – | – | – | – | – | – | – | – | – |
| anti-LDH VHH clone No. 415, protein A-fused type (VHH, not shown: protein A part of the vector after SalI digestion and self-ligation) VHH: DVQLVESGGGSEQAGGSLRLSCAAPNITYCTGDRSWYRQAPGKEREFVSSINNDGTASYADSVKGRFTISQDIVKKSVYLRMNSLKPEDTAMYYCKTDFVDGTWCAIKFGRTHWGQGTQVTVSS | binds | – | – | – | – | – | – | – | – | – | – | – |
| anti-LDH VHH clone No. 430, protein A-fused type (VHH, not shown: protein A part of the vector after SalI digestion and self-ligation) VHH: EVQLVESGGDSVQAGGSLRLSCVASSSTYSGNCMAWFRQAPGKEREGVAVVYTDDDTTYYADSVKGRFTISQDTAKNTLYLQMNSLKPEDTAMYYCATRDAWRRIGSWRDVAIYDYWGQGTQVTVSS | – | – | ~800 | 3.8e+06 | 263 | 0.00258 | 9820 | 4.04e+06 | 248 | 0.00285 | 11500 | IC50 of LDH enzyme inhibition [9]: ~400 nM |
| anti-LDH VHH clone No. 421, protein A-fused type (VHH, not shown: protein A part of the vector after SalI digestion and self-ligation) VHH: AVQLVESGGGSVQAGGFLRLSCVASVNYCMAWFRQAPGKEREGVAAINRDGRTTAYADSVKGRFTISRGNEKNTVYLLMNNLKAEDTATYYCAAYVGGSYSCGTLENDGYKYWGQGTQVTVSS | – | 10 | ~1400 | 5.83e+06 | 172 | 0.00409 | 23900 | 5.83e+06 | 171 | 0.00409 | 23900 | – |
| anti-LDH VHH clone No. 428, protein A-fused type (VHH, not shown: protein A part of the vector after SalI digestion and self-ligation) VHH: QVQLVESGGGLVQPGGSLRLSCAASGFSFSRSGMSWGRQAPGKGFEWVSRISSGGATWYADSVKGRFSISRDNAKNTVYLQLDSLKTEDTGMYYCAASDRSGSTYRGQGTQVTVSS | – | 5 | ~500 | 2.81e+06 | 356 | 0.00513 | 14400 | 2.86e+06 | 350 | 0.00516 | 14800 | – |
| anti-LDH VHH clone No. 426, protein A-fused type (VHH, not shown: protein A part of the vector after SalI digestion and self-ligation) VHH: EVQLVESGGGSVQAGGSLRLSCAAPGNTYSTNLMGWFRQAPGKEREGVAAICCGRGTTFYADSVKGRFTISQDNAKKMVYLQMELLRPEDTGIYYCASGSVRGIWSGTSQYKYWGQGTQVTVSS | binds | – | – | – | – | – | – | – | – | – | – | – |
